Data as given in PMC9935901 (Signal Transduction and Targeted Therapy, 2023).

Target: T1, GST-tagged full-length β-catenin (UniProt P35222 1-781)
T1 construct: β-catenin, full length; also called GST-β-catenin
T1 sequence (looked up): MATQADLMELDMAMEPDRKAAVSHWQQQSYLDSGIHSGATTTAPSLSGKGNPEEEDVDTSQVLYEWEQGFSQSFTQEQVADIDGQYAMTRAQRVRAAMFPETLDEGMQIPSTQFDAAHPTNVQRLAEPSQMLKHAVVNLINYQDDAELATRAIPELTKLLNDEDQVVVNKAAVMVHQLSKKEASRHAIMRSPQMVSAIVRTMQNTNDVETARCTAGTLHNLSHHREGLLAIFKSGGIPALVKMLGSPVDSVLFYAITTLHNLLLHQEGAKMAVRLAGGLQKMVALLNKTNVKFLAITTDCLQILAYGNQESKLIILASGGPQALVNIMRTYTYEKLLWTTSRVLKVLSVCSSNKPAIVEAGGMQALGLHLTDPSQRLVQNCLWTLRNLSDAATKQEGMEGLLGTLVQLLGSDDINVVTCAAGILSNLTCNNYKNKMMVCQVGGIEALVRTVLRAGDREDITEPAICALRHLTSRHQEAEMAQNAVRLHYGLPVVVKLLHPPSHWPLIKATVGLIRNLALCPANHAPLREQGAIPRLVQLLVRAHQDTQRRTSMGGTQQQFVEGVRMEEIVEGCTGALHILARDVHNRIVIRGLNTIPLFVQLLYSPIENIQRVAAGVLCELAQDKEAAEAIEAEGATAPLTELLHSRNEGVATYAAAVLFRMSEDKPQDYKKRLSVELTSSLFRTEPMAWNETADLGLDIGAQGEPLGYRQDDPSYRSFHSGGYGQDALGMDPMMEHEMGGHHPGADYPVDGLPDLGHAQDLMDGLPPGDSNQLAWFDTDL
Assay: pull-down; purified GST-tagged full-length β-catenin incubated with purified His-tagged FAM83A, pulled down by GST beads, western blotting
Details: both partners purified

B1: His-tagged FAM83A (natural protein, UniProt Q86UY5 1-434, looked up)
chain: MSRSRHLGKIRKRLEDVKSQWVRPARADFSDNESARLATDALLDGGSEAYWRVLSQEGEVDFLSSVEAQYIQAQAREPPCPPDTLGGAEAGPKGLDSSSLQSGTYFPVASEGSEPALLHSWASAEKPYLKEKSSATVYFQTVKHNNIRDLVRRCITRTSQVLVILMDVFTDVEIFCDILEAANKRGVFVCVLLDQGGVKLFQEMCDKVQISDSHLKNISIRSVEGEIYCAKSGRKFAGQIREKFIISDWRFVLSGSYSFTWLCGHVHRNILSKFTGQAVELFDEEFRHLYASSKPVMGLKSPRLVAPVPPGAAPANGRLSSSSGSASDRTSSNPFSGRSAGSHPGTRSVSASSGPCSPAAPHPPPPPRFQPHQGPWGAPSPQAHLSPRPHDGPPAAVYSNLGAYRPTRLQLEQLGLVPRLTPTWRPFLQASPHF
notes: FAM83A; also called His-FAM83A
- binding result: binds
